{"source": "paper PMC8457831", "about": "“Structural basis for diguanylate cyclase activation by its binding partner in Pseudomonas aeruginosa” (eLife, 2021)", "molecules": {"B1": {"name": "SiaC (sumo-His tag removed) (natural protein)", "chain": "MSDLHIPGTQSTPAIQGDWQAGRLSMQGDSYPENSYELFGQVIDWVERFLADGQRPLELDLRLLYLNTSSIKAMMDILDLLEEAHQGGRPVSLRWHYDRRNERVAELAEEFREDCSFPFAIQAHDE"}, "B2": {"name": "SiaC-His (natural protein)", "chain": "B1 chain"}}, "key": {"SiaD [1]": {"biological_target": "T1, SiaD (Pseudomonas aeruginosa, UniProt A0A069QEY1)", "experiment": "ITC (also HPLC assay of c-di-GMP production from GTP)", "type": "binding", "design": "gene pleD_6; SiaD alone, full length"}, "SiaD [2]": {"biological_target": "T1, SiaD", "experiment": "HPLC DGC activity assay with […] c-di-GMP; thermal shift (+[…] ℃ at […]); SEC; inhibition abolished by R201A", "type": "biochemical", "design": "gene pleD_6; full-length SiaD, alone and in the SiaC–SiaD complex"}, "SiaD [3]": {"biological_target": "T1, SiaD", "experiment": "X-ray crystal structure of SiaC–SiaD–GpCpp complex, […] Å", "type": "binding", "design": "gene pleD_6; full-length SiaD (redefined start at the upstream ATG codon); with SiaC (2:4 SiaD–SiaC complex)"}, "[4]": {"biological_target": "SiaD (full length, sumo-His tag removed) (Pseudomonas aeruginosa)", "experiment": "SAXS; synchrotron solution SAXS (SEC-SAXS for SiaD), 20 mM HEPES pH 8.0, 150 mM NaCl, 1 mM DTT, 25°C; 8 mg/ml SiaD or 11 mg/ml SiaC-SiaD complex"}, "[5]": {"biological_target": "SiaD (full length, sumo-His tag removed) (Pseudomonas aeruginosa)", "experiment": "SEC-MALS; single proteins: SiaC at 1.5 mg/ml, SiaD at 8 mg/ml, WTC-030S5 column, 20 mM HEPES pH 7.0, 150 mM NaCl, DTT"}, "[6]": {"biological_target": "SiaD (full length, sumo-His tag removed) (Pseudomonas aeruginosa)", "experiment": "SEC-MALS; SiaC-SiaD complexes (wild type and SiaD motif mutants) at 2 mg/ml, WTC-030S5 column, 20 mM HEPES pH 7.0, 150 mM NaCl, DTT"}, "[7]": {"biological_target": "SiaD (full length, sumo-His tag removed) (Pseudomonas aeruginosa)", "experiment": "crystal structure; SiaC-SiaD complex (10 mg/ml) with GpCpp 1:5, sitting drops at 18°C, space group C222(1), 2.65 Å"}, "[8]": {"biological_target": "SiaD (full length, sumo-His tag removed) (Pseudomonas aeruginosa)", "experiment": "SEC-MALS; SiaD alone at 4 mg/ml, WTC-030S5 column, 20 mM HEPES pH 7.0, 150 mM NaCl, 1 mM DTT"}, "[9]": {"biological_target": "SiaD (full length, sumo-His tag removed) (Pseudomonas aeruginosa)", "experiment": "native gel or EMSA; blue native PAGE, 8% gel, SiaD (25 ug) alone or mixed with excess SiaC (35 ug), 50 min at 15 mA, Coomassie stain"}, "[10]": {"biological_target": "SiaD^S82A-Q86A (Pseudomonas aeruginosa)", "experiment": "SEC-MALS; SiaC-SiaD complexes (wild type and SiaD motif mutants) at 2 mg/ml, WTC-030S5 column, 20 mM HEPES pH 7.0, 150 mM NaCl, DTT"}, "[11]": {"biological_target": "SiaD^S50A-Q54A (Pseudomonas aeruginosa)", "experiment": "SEC-MALS; SiaC-SiaD complexes (wild type and SiaD motif mutants) at 2 mg/ml, WTC-030S5 column, 20 mM HEPES pH 7.0, 150 mM NaCl, DTT"}, "[12]": {"biological_target": "SiaD (full length, sumo-His tag removed) (Pseudomonas aeruginosa)", "experiment": "ITC; SiaD in the cell, SiaC or SiaC mutant in the syringe, 25°C, MicroCal iTC200 or PEAQ-ITC"}, "[13]": {"biological_target": "SiaD (full length, sumo-His tag removed) (Pseudomonas aeruginosa)", "experiment": "SPR; Biacore T200, protein amine-coupled to a CM5 chip (about 5000 RU), 25°C; running buffer 10 mM Tris-HCl, 150 mM NaCl, 0.05% P-20, pH 7.5; SiaC or SiaC^M3 at varying concentrations over SiaD; fits to a 2:1 interaction"}}, "data": [{"molecule": "Nc1nc2c(ncn2[C@@H]2O[C@H](COP(=O)(O)OP(=O)(O)OP(=O)(O)O)[C@@H](O)[C@H]2O)c(=O)[nH]1", "note": "[GTP]", "values": [{"measurement": "Kd", "setting": "SiaD [1]", "result": 12000, "unit": "nM"}]}, {"molecule": "Nc1nc2c(ncn2[C@@H]2O[C@@H]3CO[P@](=O)(O)O[C@H]4[C@@H](O)[C@H](n5cnc6c(=O)[nH]c(N)nc65)O[C@@H]4CO[P@](=O)(O)O[C@H]3[C@H]2O)c(=O)[nH]1", "note": "[c-di-GMP]", "values": [{"measurement": "HPLC DGC activity assay with 50 μM c-di-GMP; thermal shift (+7.1 °C at 25 μM); S", "setting": "SiaD [2]", "result": "the enzyme activity of SiaD was inhibited by c-di-GMP more extensively than the SiaC–SiaD complex"}]}, {"molecule": "Nc1nc2c(ncn2[C@@H]2O[C@H](COP(=O)(O)CP(=O)(O)OP(=O)(O)O)[C@@H](O)[C@H]2O)c(=O)[nH]1", "note": "[GpCpp]", "values": [{"measurement": "X-ray crystal structure of SiaC-SiaD-GpCpp complex, 2.65 Å", "setting": "SiaD [3]", "result": "a non-hydrolyzable GTP analog GpCpp molecule was observed to bind in the active site of SiaD-A"}]}, {"molecule": "SiaD (full length, sumo-His tag removed) (enzyme)", "values": [{"measurement": "stoichiometry N", "setting": "[4]", "result": 5}, {"measurement": "stoichiometry N", "setting": "[5]", "result": 5}, {"measurement": "stoichiometry N", "setting": "[6]", "result": 2}, {"measurement": "stoichiometry N", "setting": "[7]", "result": 2}, {"measurement": "stoichiometry N", "setting": "[8]", "result": 5}, {"measurement": "stoichiometry N", "setting": "[9]", "result": 5}]}, {"molecule": "B1", "values": [{"measurement": "stoichiometry N (SiaC per SiaD (2:4 SiaD:SiaC))", "setting": "[10]", "result": 2}, {"measurement": "stoichiometry N (SiaC per SiaD (2:4 SiaD:SiaC))", "setting": "[11]", "result": 2}, {"measurement": "Kd", "setting": "[12]", "result": 49.8, "unit": "nM"}]}, {"molecule": "B2", "values": [{"measurement": "Kd", "setting": "[13]", "result": 11.8, "unit": "nM"}]}]}
